Data from the supplement of paper PMC5998384.

Assays:
[1] = tested on: HeLa Kyoto; experiment: melting temperature (median over replicates), in situ; higher = more thermally stable
[2] = tested on: HeLa Kyoto; experiment: solubility in G1/S (NP-40 vs SDS abundance) (log2 ratio); higher = more soluble; settings: cell cycle stage: G1/S
[3] = tested on: HeLa Kyoto; experiment: solubility change mitosis vs G1/S (difference of NP-40 vs SDS log2 ratios) (log2 ratio difference); higher = more soluble in mitosis
[4] = tested on: HeLa Kyoto; experiment: thermal stability score vs G1/S (z-score of summed log2 fold changes over temperatures); higher = more thermally stable than in G1/S
[5] = cell cycle stage: early G1 (4.5 h after nocodazole release)
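For melting temperature (median over replicates), in situ in this document: HeLa Kyoto cells synchronized by double thymidine or nocodazole block, proteins quantified by TMT10plex mass spectrometry, three independent biological replicates.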
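For solubility change mitosis vs G1/S (difference of NP-40 vs SDS log2 ratios) in this document: synchronized HeLa Kyoto cells (double thymidine block for G1/S, nocodazole release for mitosis), protein amounts in NP-40 versus SDS lysates quantified by mass spectrometry, three biological replicates.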
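For solubility in G1/S (NP-40 vs SDS abundance) in this document: HeLa Kyoto cells arrested at G1/S by double thymidine block, proteins quantified by TMT10plex mass spectrometry in mild NP-40 versus SDS extracts, three biological replicates.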
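For thermal stability score vs G1/S (z-score of summed log2 fold changes over temperatures) in this document: synchronized HeLa Kyoto cells, proteins quantified by TMT10plex mass spectrometry, three biological replicates, mitosis taken 0.5 h after nocodazole release, G1/S directly after double thymidine block.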

Sequence | melting temperature ([1]; cell cycle stage: G1/S) | melting temperature ([1]; cell cycle stage: mitosis) | solubility in G1/S (log2) [2] | solubility change mitosis (log2) [3] | thermal stability score [4, 5] | thermal stability score ([4]; cell cycle stage: mitosis)
MDGSGPFSCPICLEPLREPVTLPCGHNFCLACLGALWPHRGASGAGGPGGAARCPLCQEPFPDGLQLRKNHTLSELLQLRQGSGPGSGPGPAPALAPEPSAPSALPSVPEPSAPCAPEPWPAGEEPVRCDACPEGAALPAALSCLSCLASFCPAHLGPHERSPALRGHRLVPPLRRLEESLCPRHLRPLERYCRAERVCLCEACAAQEHRGHELVPLEQERALQEAEQSKVLSAVEDRMDELGAGIAQSRRTVALIKSAAVAERERVSRLFADAAAALQGFQTQVLGFIEEGEAAMLGRSQGDLRRQEEQRSRLSRARQNLSQVPEADSVSFLQELLALRLALEDGCGPGPGPPRELSFTKSSQAVRAVRDMLAVACVNQWEQLRGPGGNEDGPQKLDSEADAEPQDLESTNLLESEAPRDYFLKFAYIVDLDSDTADKFLQLFGTKGVKRVLCPINYPLSPTRFTHCEQVLGEGALDRGTYYWEVEIIEGWVSMGVMAEDFSPQEPYDRGRLGRNAHSCCLQWNGRSFSVWFHGLEAPLPHPFSPTVGVCLEYADRALAFYAVRDGKMSLLRRLKASRPRRGGIPASPIDPFQSRLDSHFAGLFTHRLKPAFFLESVDAHLQIGPLKKSCISVLKRR [TRIM47] | 47.8 °C | 46.7 °C | 0.0943 | -0.052 | 0.521 | 1.84
MAGNFDSEERSSWYWGRLSRQEAVALLQGQRHGVFLVRDSSTSPGDYVLSVSENSRVSHYIINSSGPRPPVPPSPAQPPPGVSPSRLRIGDQEFDSLPALLEFYKIHYLDTTTLIEPVSRSRQGSGVILRQEEAEYVRALFDFNGNDEEDLPFKKGDILRIRDKPEEQWWNAEDSEGKRGMIPVPYVEKYRPASASVSALIGGNQEGSHPQPLGGPEPGPYAQPSVNTPLPNLQNGPIYARVIQKRVPNAYDKTALALEVGELVKVTKINVSGQWEGECNGKRGHFPFTHVRLLDQQNPDEDFS [CRK] | 50.6 °C | 51.5 °C | 0.342 | -0.104 | -0.547 | -1.21
MAILFAVVARGTTILAKHAWCGGNFLEVTEQILAKIPSENNKLTYSHGNYLFHYICQDRIVYLCITDDDFERSRAFNFLNEIKKRFQTTYGSRAQTALPYAMNSEFSSVLAAQLKHHSENKGLDKVMETQAQVDELKGIMVRNIDLVAQRGERLELLIDKTENLVDSSVTFKTTSRNLARAMCMKNLKLTIIIIIVSIVFIYIIVSPLCGGFTWPSCVKK [VAMP7] | 54.4 °C | 53.1 °C | -0.0498 | -0.283 | 1.62 | 1.41
MSNYSVSLVGPAPWGFRLQGGKDFNMPLTISSLKDGGKAAQANVRIGDVVLSIDGINAQGMTHLEAQNKIKGCTGSLNMTLQRASAAPKPEPVPVQKGEPKEVVKPVPITSPAVSKVTSTNNMAYNKAPRPFGSVSSPKVTSIPSPSSAFTPAHATTSSHASPSPVAAVTPPLFAASGLHANANLSADQSPSALSAGKTAVNVPRQPTVTSVCSETSQELAEGQRRGSQGDSKQQNGPPRKHIVERYTEFYHVPTHSDASKKRLIEDTEDWRPRTGTTQSRSFRILAQITGTEHLKESEADNTKKANNSQEPSPQLASSVASTRSMPESLDSPTSGRPGVTSLTAAAAFKPVGSTGVIKSPSWQRPNQGVPSTGRISNSATYSGSVAPANSALGQTQPSDQDTLVQRAEHIPAGKRTPMCAHCNQVIRGPFLVALGKSWHPEEFNCAHCKNTMAYIGFVEEKGALYCELCYEKFFAPECGRCQRKILGEVISALKQTWHVSCFVCVACGKPIRNNVFHLEDGEPYCETDYYALFGTICHGCEFPIEAGDMFLEALGYTWHDTCFVCSVCCESLEGQTFFSKKDKPLCKKHAHSVNF [PDLIM5] | 52.1 °C | 52.6 °C | 0.0686 | 0.0095 | -0.121 | 0.334
MTSELDIFVGNTTLIDEDVYRLWLDGYSVTDAVALRVRSGILEQTGATAAVLQSDTMDHYRTFHMLERLLHAPPKLLHQLIFQIPPSRQALLIERYYAFDEAFVREVLGKKLSKGTKKDLDDISTKTGITLKSCRRQFDNFKRVFKVVEEMRGSLVDNIQQHFLLSDRLARDYAAIVFFANNRFETGKKKLQYLSFGDFAFCAELMIQNWTLGAVGEAPTDPDSQMDDMDMDLDKEFLQDLKELKVLVADKDLLDLHKSLVCTALRGKLGVFSEMEANFKNLSRGLVNVAAKLTHNKDVRDLFVDLVEKFVEPCRSDHWPLSDVRFFLNQYSASVHSLDGFRHQALWDRYMGTLRGCLLRLYHD [FIBP] | 50.3 °C | 49.5 °C | -0.45 | -0.13 | -0.876 | 0.233
MAGAGPAPGLPGAGGPVVPGPGAGIPGKSGEERLKEMEAEMALFEQEVLGAPVPGIPTAVPAVPTVPTVPTVEAMQVPAAPVIRPIIATNTYQQVQQTLEARAAAAATVVPPMVGGPPFVGPVGFGPGDRSHLDSPEAREAMFLRRAAVAPQRAPILRPAFVPHVLQRADSALSSAAAGPRPMALRPPHQALVGPPLPGPPGPPMMLPPMARAPGPPLGSMAALRPPLEEPAAPRELGLGLGLGLKEKEEAVVAAAAGLEEASAAVAVGAGGAPAGPAVIGPSLPLALAMPLPEPEPLPLPLEVVRGLLPPLRIPELLSLRPRPRPPRPEPPPGLMALEVPEPLGEDKKKGKPEKLKRCIRTAAGSSWEDPSLLEWDADDFRIFCGDLGNEVNDDILARAFSRFPSFLKAKVIRDKRTGKTKGYGFVSFKDPSDYVRAMREMNGKYVGSRPIKLRKSMWKDRNLDVVRKKQKEKKKLGLR [RBM42] | 51.6 °C | 50.1 °C | 0.0912 | 0.019 | -2.37 | -2.6
MAYAYLFKYIIIGDTGVGKSCLLLQFTDKRFQPVHDLTIGVEFGARMITIDGKQIKLQIWDTAGQESFRSITRSYYRGAAGALLVYDITRRDTFNHLTTWLEDARQHSNSNMVIMLIGNKSDLESRREVKKEEGEAFAREHGLIFMETSAKTASNVEEAFINTAKEIYEKIQEGVFDINNEANGIKIGPQHAATNATHAGNQGGQQAGGGCC [RAB2A] | 59.9 °C | 61 °C | -0.194 | -0.118 | -2.08 | -3.49
MASGSGDSVTRRSVASQFFTQEEGPGIDGMTTSERVVDLLNQAALITNDSKITVLKQVQELIINKDPTLLDNFLDEIIAFQADKSIEVRKFVIGFIEEACKRDIELLLKLIANLNMLLRDENVNVVKKAILTMTQLYKVALQWMVKSRVISELQEACWDMVSAMAGDIILLLDSDNDGIRTHAIKFVEGLIVTLSPRMADSEIPRRQEHDISLDRIPRDHPYIQYNVLWEEGKAALEQLLKFMVHPAISSINLTTALGSLANIARQRPMFMSEVIQAYETLHANLPPTLAKSQVSSVRKNLKLHLLSVLKHPASLEFQAQITTLLVDLGTPQAEIARNMPSSKDTRKRPRDDSDSTLKKMKLEPNLGEDDEDKDLEPGPSGTSKASAQISGQSDTDITAEFLQPLLTPDNVANLVLISMVYLPEAMPASFQAIYTPVESAGTEAQIKHLARLMATQMTAAGLGPGVEQTKQCKEEPKEEKVVKTESVLIKRRLSAQGQAISVVGSLSSMSPLEEEAPQAKRRPEPIIPVTQPRLAGAGGRKKIFRLSDVLKPLTDAQVEAMKLGAVKRILRAEKAVACSGAAQVRIKILASLVTQFNSGLKAEVLSFILEDVRARLDLAFAWLYQEYNAYLAAGASGSLDKYEDCLIRLLSGLQEKPDQKDGIFTKVVLEAPLITESALEVVRKYCEDESRTYLGMSTLRDLIFKRPSRQFQYLHVLLDLSSHEKDKVRSQALLFIKRMYEKEQLREYVEKFALNYLQLLVHPNPPSVLFGADKDTEVAAPWTEETVKQCLYLYLALLPQNHKLIHELAAVYTEAIADIKRTVLRVIEQPIRGMGMNSPELLLLVENCPKGAETLVTRCLHSLTDKVPPSPELVKRVRDLYHKRLPDVRFLIPVLNGLEKKEVIQALPKLIKLNPIVVKEVFNRLLGTQHGEGNSALSPLNPGELLIALHNIDSVKCDMKSIIKATNLCFAERNVYTSEVLAVVMQQLMEQSPLPMLLMRTVIQSLTMYPRLGGFVMNILSRLIMKQVWKYPKVWEGFIKCCQRTKPQSFQVILQLPPQQLGAVFDKCPELREPLLAHVRSFTPHQQAHIPNSIMTILEASGKQEPEAKEAPAGPLEEDDLEPLTLAPAPAPRPPQDLIGLRLAQEKALKRQLEEEQKLKPGGVGAPSSSSPSPSPSARPGPPPSEEAMDFREEGPECETPGIFISMDDDSGLTEAALLDSSLEGPLPKETAAGGLTLKEERSPQTLAPVGEDAMKTPSPAAEDAREPEAKGNS [SYMPK] | 48.1 °C | 49.1 °C | 0.0291 | -0.0648 | 1.75 | 4.2
MDDIFTQCREGNAVAVRLWLDNTENDLNQGDDHGFSPLHWACREGRSAVVEMLIMRGARINVMNRGDDTPLHLAASHGHRDIVQKLLQYKADINAVNEHGNVPLHYACFWGQDQVAEDLVANGALVSICNKYGEMPVDKAKAPLRELLRERAEKMGQNLNRIPYKDTFWKGTTRTRPRNGTLNKHSGIDFKQLNFLTKLNENHSGELWKGRWQGNDIVVKVLKVRDWSTRKSRDFNEECPRLRIFSHPNVLPVLGACQSPPAPHPTLITHWMPYGSLYNVLHEGTNFVVDQSQAVKFALDMARGMAFLHTLEPLIPRHALNSRSVMIDEDMTARISMADVKFSFQCPGRMYAPAWVAPEALQKKPEDTNRRSADMWSFAVLLWELVTREVPFADLSNMEIGMKVALEGLRPTIPPGISPHVCKLMKICMNEDPAKRPKFDMIVPILEKMQDK [ILK] | 50.1 °C | 50 °C | 0.274 | -0.135 | 1.36 | 1.76
MANSGCKDVTGPDEESFLYFAYGSNLLTERIHLRNPSAAFFCVARLQDFKLDFGNSQGKTSQTWHGGIATIFQSPGDEVWGVVWKMNKSNLNSLDEQEGVKSGMYVVIEVKVATQEGKEITCRSYLMTNYESAPPSPQYKKIICMGAKENGLPLEYQEKLKAIEPNDYTGKVSEEIEDIIKKGETQTL [GGCT] | 55.4 °C | 55.3 °C | 0.302 | -0.0992 | -0.47 | -3.22
MAGAIIENMSTKKLCIVGGILLVFQIIAFLVGGLIAPGPTTAVSYMSVKCVDARKNHHKTKWFVPWGPNHCDKIRDIEEAIPREIEANDIVFSVHIPLPHMEMSPWFQFMLFILQLDIAFKLNNQIRENAEVSMDVSLAYRDDAFAEWTEMAHERVPRKLKCTFTSPKTPEHEGRYYECDVLPFMEIGSVAHKFYLLNIRLPVNEKKKINVGIGEIKDIRLVGIHQNGGFTKVWFAMKTFLTPSIFIIMVWYWRRITMMSRPPVLLEKVIFALGISMTFINIPVEWFSIGFDWTWMLLFGDIRQGIFYAMLLSFWIIFCGEHMMDQHERNHIAGYWKQVGPIAVGSFCLFIFDMCERGVQLTNPFYSIWTTDIGTELAMAFIIVAGICLCLYFLFLCFMVFQVFRNISGKQSSLPAMSKVRRLHYEGLIFRFKFLMLITLACAAMTVIFFIVSQVTEGHWKWGGVTVQVNSAFFTGIYGMWNLYVFALMFLYAPSHKNYGEDQSNGDLGVHSGEELQLTTTITHVDGPTEIYKLTRKEAQE [WLS] | 54.2 °C | 54.2 °C | -0.178 | -0.236 | 0.834 | 2.64
MPEEGSGCSVRRRPYGCVLRAALVPLVAGLVICLVVCIQRFAQAQQQLPLESLGWDVAELQLNHTGPQQDPRLYWQGGPALGRSFLHGPELDKGQLRIHRDGIYMVHIQVTLAICSSTTASRHHPTTLAVGICSPASRSISLLRLSFHQGCTIASQRLTPLARGDTLCTNLTGTLLPSRNTDETFFGVQWVRP [CD70] | 54.9 °C | 57.1 °C | 0.258 | -0.0934 | -2.35 | -1.58
